From PMC8944281 (Proceedings of the National Academy of Sciences of the …, 2022)

Biological target: T1, His8-tagged GSAP-16K 734 to 758 (UniProt A4D1B5 734-758)
T1 chain (looked up): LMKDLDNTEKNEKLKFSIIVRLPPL
Assay: SEC

B1: GST-APP 730 to 738 (domain or fragment, UniProt P05067 730-738, looked up)
chain: SIHHGVVEV
B1: binds.
